The assay deals with T1, HSP70 (human HSP70; the antigen of the binning, humanization and variant binding assays) (human, UniProt P0DMV8 1-641, limits assumed).
T1 construct: also called hu HSP70
The experiment in a line: BLI, antibody on sensor. Here is the method:
Humanized variants were characterized for binding using biolayer interferometry (BLI). Chimeric antibodies including the murine 77A antigen binding region and human Fe regions were also tested. Antibodies and reagents were diluted out onto microwell plates and loaded into the instrument. Diluted antibodies were first immobilized onto dip-and-read sensors, and then measurements for baselines were acquired. Subsequently, the sensors were dipped into wells containing the antigen in solution, or buffer alone. The change in number of molecules bound to the sensor was quantified by measurement of the shift in the interference pattern of light during each step of the protocol. Mathematical modeling was performed based on those values and the concentrations of reagents used in the assay and used to calculate kinetics values.
(In general: In BLI a coated tip is dipped into the sample, and binding shifts an interference pattern.)

T1 sequence (P0DMV8 whole entry, change not shown): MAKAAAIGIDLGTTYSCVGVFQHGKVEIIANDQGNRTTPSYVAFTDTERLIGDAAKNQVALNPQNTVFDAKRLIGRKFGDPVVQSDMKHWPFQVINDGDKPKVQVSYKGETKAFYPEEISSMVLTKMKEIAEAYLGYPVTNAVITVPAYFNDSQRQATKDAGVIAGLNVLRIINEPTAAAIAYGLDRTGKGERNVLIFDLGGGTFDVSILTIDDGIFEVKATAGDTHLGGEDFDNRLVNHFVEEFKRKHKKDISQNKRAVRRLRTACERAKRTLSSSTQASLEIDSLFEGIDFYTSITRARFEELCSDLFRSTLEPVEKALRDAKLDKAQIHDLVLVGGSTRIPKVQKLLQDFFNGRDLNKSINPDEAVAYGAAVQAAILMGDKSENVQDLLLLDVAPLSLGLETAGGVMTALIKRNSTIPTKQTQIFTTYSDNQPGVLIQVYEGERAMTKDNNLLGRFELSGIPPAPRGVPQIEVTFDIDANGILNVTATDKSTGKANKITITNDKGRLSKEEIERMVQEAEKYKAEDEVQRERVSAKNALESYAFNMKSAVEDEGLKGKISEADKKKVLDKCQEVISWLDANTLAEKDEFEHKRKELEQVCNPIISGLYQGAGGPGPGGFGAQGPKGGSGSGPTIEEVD

B1: h77A-11 (antibody, V domains shown)
VH: QVQLQQSGPEVKKPGASVKISCKTSGYTFTNYGMNWVRQAPGQGLEWMGWINTYTGEPTYADDFKGRVTMTTDTSTSTAYLELTGLMSDDTAVYFCARYDHAMDYWGQGTTVTVSS
VL: EIVLTQSPDSLAVSLGERATINCKSSQSLLNSGTRKNYLAWYQQKAGQSPKLLIYWTSTRESGVPDRFSGSGSGTDFTLTIDSLQAEDVAVYYCKQSYTLYTFGGGTKVEIK
As to B1, the affinity, expressed as Kd, was 4.23 nM; the koff turned out to be 0.000189 s⁻¹; the kon amounted to 44600 M⁻¹ s⁻¹.

B2: h77A-13 (antibody, V domains shown)
VH: QVQLQQSGPEVKKPGASVKISCKTSGYTFTNYGMNWVRQAPGQGLEWMGWINTYTGEPTYADDFKGRVTMTTDTSTSTAYLELTGLMSDDTAVYFCARYDHAMDYWGQGTTVTVSS
VL: DVVMTQSPDSLAVSLGERVTINCKSSQSLLNSGTRKNYLAWYQQKPGQSPKLLIYWTSTRESGVPDRFSGSGSGTDFTLTISSLQAEDVAVYYCKQSYTLYTFGQGTKLEIK
B2 came in with a Kd of 8.85 nM, a dissociation rate constant (koff) of 0.000396 s⁻¹ and a kon of 44700 M⁻¹ s⁻¹.

B3: h77A-22 (antibody, V domains shown)
VH: QIQLVQSGPEVKKPGESVKVSCKASGYTFTNYGMNWVRQAPGKGLEWMGWINTYTGEPTYADDFKGRVTITRDTSASTAYMELSSLRSEDTAVYFCARYDHAMDYWGQGTSVTVSS
VL: DIVMTQSPDSLSVSLGERATINCKSSQSLLNSGTRKNYLAWYQQKPGQPPRLLIYWTSTRESGVPDRFSGSGSGTDFTLTINTLQAEDVAVYYCKQSYTLYTFGQGTKLEIK
B3 yielded a Kd of 8.31 nM, a koff of 0.000302 s⁻¹ and a kon of 36400 M⁻¹ s⁻¹.

B4: h77A-16 (antibody, V domains shown)
VH: EVQLVESGGGLVKPGGSLRLSCKASGYTFTNYGMNWVRQAPGKGLKWVGWINTYTGEPTYADDFKGRFTFSRDDSKNTLYLQMNSLKTEDTAVYFCARYDHAMDYWGQGTSVTVSS
VL: EIVLTQSPDSLAVSLGERATINCKSSQSLLNSGTRKNYLAWYQQKAGQSPKLLIYWTSTRESGVPDRFSGSGSGTDFTLTIDSLQAEDVAVYYCKQSYTLYTFGGGTKVEIK
B4 gave a Kd of 10.5 nM, a koff of 0.00046 s⁻¹ and a kon of 44000 M⁻¹ s⁻¹.

B5: h77A-12 (antibody, V domains shown)
VH: QVQLQQSGPEVKKPGASVKISCKTSGYTFTNYGMNWVRQAPGQGLEWMGWINTYTGEPTYADDFKGRVTMTTDTSTSTAYLELTGLMSDDTAVYFCARYDHAMDYWGQGTTVTVSS
VL: DIVMTQSPDSLSVSLGERATINCKSSQSLLNSGTRKNYLAWYQQKPGQPPRLLIYWTSTRESGVPDRFSGSGSGTDFTLTINTLQAEDVAVYYCKQSYTLYTFGQGTKLEIK
The molecule B5 showed a Kd of 10 nM, a koff of 0.000446 s⁻¹ and a kon of 44500 M⁻¹ s⁻¹.

B6: h77A-25 (antibody, V domains shown)
VH: QIQLVQSGPEVKKPGESVKVSCKASGYTFTNYGMNWVRQAPGKGLEWMGWINTYTGEPTYADDFKGRVTITRDTSASTAYMELSSLRSEDTAVYFCARYDHAMDYWGQGTSVTVSS
VL: DIVMTQSPDSLAVSLGERATINCKSSQSLLNSGTRKNYLAWYQQKPGQSPKLLIYWTSTRESGVPDRFSGSGSGTDFTLTISSLQAEDVAVYYCKQSYTLYTFGGGTKLEIK
In the case of B6, binding was characterised by a dissociation constant (Kd) of 10.6 nM, the koff was 0.000503 s⁻¹ and the kon came to 47300 M⁻¹ s⁻¹.

B7: h77A-23 (antibody, V domains shown)
VH: QIQLVQSGPEVKKPGESVKVSCKASGYTFTNYGMNWVRQAPGKGLEWMGWINTYTGEPTYADDFKGRVTITRDTSASTAYMELSSLRSEDTAVYFCARYDHAMDYWGQGTSVTVSS
VL: DVVMTQSPDSLAVSLGERVTINCKSSQSLLNSGTRKNYLAWYQQKPGQSPKLLIYWTSTRESGVPDRFSGSGSGTDFTLTISSLQAEDVAVYYCKQSYTLYTFGQGTKLEIK
In turn, B7 yielded a Kd of 8.96 nM, a koff of 0.000447 s⁻¹ and a kon of 49900 M⁻¹ s⁻¹.

B8: h77A-7 (antibody, V domains shown)
VH: QIQLVQSGAEVKKPGSSVKVSCKASGYTFTNYGMNWVRQAPGQGLEWMGWINTYTGEPTYADDFKGRFTFTADESTSTAYMELSSLRSEDTAVYFCARYDHAMDYWGQGTLVTVSS
VL: DIVMTQSPDSLSVSLGERATINCKSSQSLLNSGTRKNYLAWYQQKPGQPPRLLIYWTSTRESGVPDRFSGSGSGTDFTLTINTLQAEDVAVYYCKQSYTLYTFGQGTKLEIK
In the case of B8, binding was put at a Kd of 10 nM, the koff amounted to 0.000488 s⁻¹ and the kon is 48700 M⁻¹ s⁻¹.

B9: h77A-15 (antibody, V domains shown)
VH: QVQLQQSGPEVKKPGASVKISCKTSGYTFTNYGMNWVRQAPGQGLEWMGWINTYTGEPTYADDFKGRVTMTTDTSTSTAYLELTGLMSDDTAVYFCARYDHAMDYWGQGTTVTVSS
VL: DIVMTQSPDSLAVSLGERATINCKSSQSLLNSGTRKNYLAWYQQKPGQSPKLLIYWTSTRESGVPDRFSGSGSGTDFTLTISSLQAEDVAVYYCKQSYTLYTFGGGTKLEIK
In turn, B9 displayed a Kd of 10.8 nM, a koff of 0.000513 s⁻¹ and a kon of 47600 M⁻¹ s⁻¹.

B10: h77A-21 (antibody, V domains shown)
VH: QIQLVQSGPEVKKPGESVKVSCKASGYTFTNYGMNWVRQAPGKGLEWMGWINTYTGEPTYADDFKGRVTITRDTSASTAYMELSSLRSEDTAVYFCARYDHAMDYWGQGTSVTVSS
VL: EIVLTQSPDSLAVSLGERATINCKSSQSLLNSGTRKNYLAWYQQKAGQSPKLLIYWTSTRESGVPDRFSGSGSGTDFTLTIDSLQAEDVAVYYCKQSYTLYTFGGGTKVEIK
B10 registered a Kd of 13.1 nM, a koff of 0.000545 s⁻¹ and a kon of 41700 M⁻¹ s⁻¹.

B11: h77A-4 (antibody, V domains shown)
VH: QIQLVQSGAEVKKPGASVKVSCKASGYTFTNYGMNWVRQAPGQGLEWMGWINTYTGEPTYADDFKGRFTFTTDTSTSTAYMELRSLRSDDTAVYFCARYDHAMDYWGQGTLVTVSS
VL: DIQMTQSPSSLSASVGDRVTITCKSSQSLLNSGTRKNYLAWYQQKPGKVPKLLIYWTSTRESGVPSRFSGSGSGTDFTLTISSLQPEDVATYYCKQSYTLYTFGGGTKLEIK
For the molecule B11, the Kd stood at 7.66 nM, the dissociation rate constant (koff) was determined as 0.000287 s⁻¹ and the kon was determined as 37400 M⁻¹ s⁻¹.

B12: h77A-14 (antibody, V domains shown)
VH: QVQLQQSGPEVKKPGASVKISCKTSGYTFTNYGMNWVRQAPGQGLEWMGWINTYTGEPTYADDFKGRVTMTTDTSTSTAYLELTGLMSDDTAVYFCARYDHAMDYWGQGTTVTVSS
VL: DIQMTQSPSSLSASVGDRVTITCKSSQSLLNSGTRKNYLAWYQQKPGKVPKLLIYWTSTRESGVPSRFSGSGSGTDFTLTISSLQPEDVATYYCKQSYTLYTFGGGTKLEIK
The molecule B12 had a Kd of 15 nM, a koff of 0.000616 s⁻¹ and a kon of 41100 M⁻¹ s⁻¹.

B13: h77A-9 (antibody, V domains shown)
VH: QIQLVQSGAEVKKPGSSVKVSCKASGYTFTNYGMNWVRQAPGQGLEWMGWINTYTGEPTYADDFKGRFTFTADESTSTAYMELSSLRSEDTAVYFCARYDHAMDYWGQGTLVTVSS
VL: DIQMTQSPSSLSASVGDRVTITCKSSQSLLNSGTRKNYLAWYQQKPGKVPKLLIYWTSTRESGVPSRFSGSGSGTDFTLTISSLQPEDVATYYCKQSYTLYTFGGGTKLEIK
In turn, B13 yielded a Kd of 8.89 nM, a koff of 0.000348 s⁻¹ and a kon of 39200 M⁻¹ s⁻¹.

B14: h77A-24 (antibody, V domains shown)
VH: QIQLVQSGPEVKKPGESVKVSCKASGYTFTNYGMNWVRQAPGKGLEWMGWINTYTGEPTYADDFKGRVTITRDTSASTAYMELSSLRSEDTAVYFCARYDHAMDYWGQGTSVTVSS
VL: DIQMTQSPSSLSASVGDRVTITCKSSQSLLNSGTRKNYLAWYQQKPGKVPKLLIYWTSTRESGVPSRFSGSGSGTDFTLTISSLQPEDVATYYCKQSYTLYTFGGGTKLEIK
Regarding B14, the Kd is 9.26 nM, the koff stood at 0.000294 s⁻¹ and the kon amounted to 31800 M⁻¹ s⁻¹.

B15: chimeric 77A with a human IgG1 Fc domain (antibody, V domains shown)
VH: QIQLVQSGPELKKPGETVKISCKASGYTFTNYGMNWVKQAPGKGLKWMGWINTYTGEPTYADDFKGRFAFSLETSATTAYLQINNLKNEDTATYFCARYDHAMDYWGQGTSVTVSS
VL: DIVMSQSPSSLAVSAGEKVTMSCKSSQSLLNSGTRKNYLAWYQQKPGQSPKLLIYWTSTRESGVPDRFTGSGSGTDFTLTINSVQAEDLAVYYCKQSYTLYTFGGGTKLEIK
notes: also called Chimera IgG1; IgG1 Chimera
As to B15, binding was characterised by a dissociation constant (Kd) of 1.39 nM, the koff is 9.94e-05 s⁻¹ and the kon is 71600 M⁻¹ s⁻¹.

B16: chimeric 77A with a human IgG2 Fc domain (antibody, V domains shown)
VH: QIQLVQSGPELKKPGETVKISCKASGYTFTNYGMNWVKQAPGKGLKWMGWINTYTGEPTYADDFKGRFAFSLETSATTAYLQINNLKNEDTATYFCARYDHAMDYWGQGTSVTVSS
VL: DIVMSQSPSSLAVSAGEKVTMSCKSSQSLLNSGTRKNYLAWYQQKPGQSPKLLIYWTSTRESGVPDRFTGSGSGTDFTLTINSVQAEDLAVYYCKQSYTLYTFGGGTKLEIK
notes: also called Chimera IgG2; IgG2 Chimera
As to B16, the Kd was found to be 1.52 nM, the dissociation rate constant (koff) was 0.000112 s⁻¹ and the kon amounted to 73700 M⁻¹ s⁻¹.

B17: chimeric 77A with a human IgG4 Fc domain (antibody, V domains shown)
VH: QIQLVQSGPELKKPGETVKISCKASGYTFTNYGMNWVKQAPGKGLKWMGWINTYTGEPTYADDFKGRFAFSLETSATTAYLQINNLKNEDTATYFCARYDHAMDYWGQGTSVTVSS
VL: DIVMSQSPSSLAVSAGEKVTMSCKSSQSLLNSGTRKNYLAWYQQKPGQSPKLLIYWTSTRESGVPDRFTGSGSGTDFTLTINSVQAEDLAVYYCKQSYTLYTFGGGTKLEIK
notes: also called Chimera IgG4; IgG4 Chimera
For the molecule B17, the Kd is 1.81 nM, the koff came out at 0.000129 s⁻¹ and the kon was 71300 M⁻¹ s⁻¹.

One may read the Kd as the concentration at which binding is half-saturated. In general, koff refers to a measure of how fast the partners let go of each other. A lower koff goes with slow dissociation. Usually kon stands for the second-order rate constant of association. A low value points to slow association.

For the origin of these results see US20250084155A1 (University of Texas, published 2025).
